Article PMC3050080

Tests used:
[1] = target: T1, TIA-1 RRM23 (UniProt P31483 104-288); assay: fluorescence anisotropy
T1 sequence: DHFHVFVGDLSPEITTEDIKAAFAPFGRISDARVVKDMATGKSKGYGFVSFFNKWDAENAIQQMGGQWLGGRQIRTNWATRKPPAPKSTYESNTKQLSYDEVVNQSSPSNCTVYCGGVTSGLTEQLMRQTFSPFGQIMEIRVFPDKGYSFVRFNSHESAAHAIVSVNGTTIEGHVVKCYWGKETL

[2] = target: T2, SXL RRM12 (UniProt P19339 122-294); assay: fluorescence anisotropy
T2 sequence: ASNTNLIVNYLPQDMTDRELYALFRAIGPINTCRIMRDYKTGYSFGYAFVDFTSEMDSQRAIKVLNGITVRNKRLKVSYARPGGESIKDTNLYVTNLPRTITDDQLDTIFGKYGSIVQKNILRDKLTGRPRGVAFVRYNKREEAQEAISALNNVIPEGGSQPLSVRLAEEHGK

UUUUUUUUUUUUUUUUUUUU (ssRNA) [U20] gave a Kd [1] of 0.033 ± 0.006 µM and a Kd [2] of 0.007 ± 0.003 µM.
